We go through five molecules from US20240301373, “FANZORS ARE RNA-GUIDED NUCLEASES ENCODED IN EUKARYOTIC GENOMES” (Massachusetts Institute of Technology, published 2024).

Data set [1] deals with T1, MmFNuc (Mercenaria mercenaria).
T1 chain: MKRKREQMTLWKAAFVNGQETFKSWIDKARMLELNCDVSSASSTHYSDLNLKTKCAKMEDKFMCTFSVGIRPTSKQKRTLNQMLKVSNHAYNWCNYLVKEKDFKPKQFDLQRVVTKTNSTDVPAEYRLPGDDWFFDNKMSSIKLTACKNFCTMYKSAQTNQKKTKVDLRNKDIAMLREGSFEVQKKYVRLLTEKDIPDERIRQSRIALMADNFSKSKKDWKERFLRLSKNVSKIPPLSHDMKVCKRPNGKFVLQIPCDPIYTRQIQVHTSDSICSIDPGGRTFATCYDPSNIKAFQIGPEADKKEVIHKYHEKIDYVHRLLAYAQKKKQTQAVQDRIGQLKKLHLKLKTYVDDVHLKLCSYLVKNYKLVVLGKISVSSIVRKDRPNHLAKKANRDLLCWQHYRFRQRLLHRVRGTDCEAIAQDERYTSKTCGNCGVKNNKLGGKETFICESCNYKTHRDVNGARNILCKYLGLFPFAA
Nature of the data set: pulldown; co-purified fRNA sequenced. An excerpt:
(§1) This study sought to explore whether Fanzor2 proteins from diverse eukaryotes also are active RNA-guided nucleases. Three Fanzor2 representatives from three animals and a Fanzor1 representative from a plant were chosen for this study: 1) Fanzor2 from Aercenaria mercenaria (Venus clam, MmFNuc), 2) Fanzor2 from Dreissena polymorpha (Zebra mussel, DpFNuc), 3) Fanzor2 from Batillaria attramentaria (Japanese mud snail; BaFNuc), and 4) Fanzor1 from Klebsormidium nitens (freshwater green algae; KnFNuc) (FIG. 21A). […] Constructs for co-expression of the fRNA and Fanzor nuclease were cloned in a cell-free transcription/translation system, allowing for isolation of the resulting RNPs to study their fRNA sequences and cleavage activity (FIG. 21B). […] These fRNAs were highly structured with diverse structural motifs and domains (FIG. 28B).

Data set [2] addresses T2, BaFNuc (Batillaria attramentaria).
T2 chain: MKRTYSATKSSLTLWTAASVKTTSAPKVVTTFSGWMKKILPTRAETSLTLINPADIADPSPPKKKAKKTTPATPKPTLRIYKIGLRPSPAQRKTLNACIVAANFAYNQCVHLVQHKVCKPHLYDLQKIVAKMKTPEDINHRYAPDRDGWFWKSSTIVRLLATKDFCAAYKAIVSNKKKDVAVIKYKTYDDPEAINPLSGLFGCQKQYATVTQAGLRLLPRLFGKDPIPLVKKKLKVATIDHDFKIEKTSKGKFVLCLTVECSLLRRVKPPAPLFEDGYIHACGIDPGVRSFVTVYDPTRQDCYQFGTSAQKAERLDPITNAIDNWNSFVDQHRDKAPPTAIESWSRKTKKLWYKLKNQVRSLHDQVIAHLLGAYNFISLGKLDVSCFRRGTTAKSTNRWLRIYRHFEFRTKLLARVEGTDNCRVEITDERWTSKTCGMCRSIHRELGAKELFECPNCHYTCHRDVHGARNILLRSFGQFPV
Briefly: pulldown; co-purified fRNA sequenced.
From the text: as §1

The target of data set [3] is T3, DpFNuc (Dreissena polymorpha).
T3 chain: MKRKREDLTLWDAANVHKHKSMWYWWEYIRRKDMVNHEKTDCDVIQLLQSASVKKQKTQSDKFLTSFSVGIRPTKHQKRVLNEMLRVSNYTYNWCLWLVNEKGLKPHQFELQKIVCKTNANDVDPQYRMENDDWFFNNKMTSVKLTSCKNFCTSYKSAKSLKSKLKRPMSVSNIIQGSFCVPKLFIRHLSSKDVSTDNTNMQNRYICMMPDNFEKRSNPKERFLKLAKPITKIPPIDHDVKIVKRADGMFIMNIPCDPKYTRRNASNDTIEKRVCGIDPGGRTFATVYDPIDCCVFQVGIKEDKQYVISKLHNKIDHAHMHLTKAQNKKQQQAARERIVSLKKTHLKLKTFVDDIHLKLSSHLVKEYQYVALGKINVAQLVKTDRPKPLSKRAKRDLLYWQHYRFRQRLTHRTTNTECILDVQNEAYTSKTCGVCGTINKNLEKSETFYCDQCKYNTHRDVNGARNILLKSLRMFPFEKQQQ
Briefly: pulldown; co-purified fRNA sequenced.
From the text: as §1

The target of data set [4] is T4, KnFNuc (Fanzor1) (Klebsormidium nitens).
T4 chain: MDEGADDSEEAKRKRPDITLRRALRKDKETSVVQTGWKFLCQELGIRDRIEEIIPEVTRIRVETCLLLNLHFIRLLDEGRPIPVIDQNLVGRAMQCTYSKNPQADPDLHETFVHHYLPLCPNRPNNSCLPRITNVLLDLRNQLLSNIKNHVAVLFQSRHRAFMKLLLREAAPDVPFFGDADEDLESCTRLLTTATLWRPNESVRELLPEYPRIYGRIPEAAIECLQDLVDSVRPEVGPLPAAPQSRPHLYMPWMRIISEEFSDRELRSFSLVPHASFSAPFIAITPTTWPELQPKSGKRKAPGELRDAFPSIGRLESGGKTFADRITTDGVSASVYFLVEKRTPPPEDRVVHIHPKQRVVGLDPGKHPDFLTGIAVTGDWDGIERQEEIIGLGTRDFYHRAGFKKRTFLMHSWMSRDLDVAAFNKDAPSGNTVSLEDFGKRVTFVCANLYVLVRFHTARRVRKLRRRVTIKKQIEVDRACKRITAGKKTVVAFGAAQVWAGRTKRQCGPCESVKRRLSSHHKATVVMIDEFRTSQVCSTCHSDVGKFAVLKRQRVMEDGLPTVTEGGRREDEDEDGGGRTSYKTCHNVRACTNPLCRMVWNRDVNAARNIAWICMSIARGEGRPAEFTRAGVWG
Nature of the data set: pulldown; co-purified fRNA sequenced.
From the text: as §1

Data set [5] deals with T5, ApmFNuc (ApmHNuc, Isvmimi Fanzor2) (Acanthamoeba polyphaga mimivirus, UniProt Q5UPQ8 SEQ:1-520).
T5 sequence: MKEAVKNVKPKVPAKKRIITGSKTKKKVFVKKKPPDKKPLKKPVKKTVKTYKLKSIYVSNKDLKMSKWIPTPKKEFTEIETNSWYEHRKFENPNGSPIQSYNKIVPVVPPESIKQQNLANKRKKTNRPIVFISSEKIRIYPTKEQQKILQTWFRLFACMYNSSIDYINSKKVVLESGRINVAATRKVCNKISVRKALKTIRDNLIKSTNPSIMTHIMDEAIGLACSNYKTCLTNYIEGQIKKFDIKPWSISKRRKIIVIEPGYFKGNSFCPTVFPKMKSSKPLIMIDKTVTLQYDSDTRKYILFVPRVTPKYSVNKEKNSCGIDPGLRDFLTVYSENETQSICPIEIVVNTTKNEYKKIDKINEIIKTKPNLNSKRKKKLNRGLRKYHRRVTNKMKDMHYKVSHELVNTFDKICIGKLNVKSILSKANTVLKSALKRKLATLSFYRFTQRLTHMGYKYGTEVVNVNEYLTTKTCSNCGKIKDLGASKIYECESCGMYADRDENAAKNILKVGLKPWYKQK
Nature of the data set: pulldown; co-purified fRNA identified by small RNA sequencing. As to conditions: tags: Strep tag; RNP co-expressed with fRNA in E. coli.

B1: MmFNuc fRNA scaffold (ssRNA)
RNA: ACUUCCAAGACCUGUGGUAAUUGCGGUGUGAAGAACAACAAACUUGGUGGAAAGGAAACGUUUACUUGUGAGUGUUGCAAUUACAAAACUCAUCGAGACGUCAACGGAGCGAGAAACAUUCUGUGCAAAUACUUGAAACUUUUUCCAUUCGCAGCAUAACGAAAGAAACUGACAAUCGAUUUUUUCGGGUUCGAUUCUAUCCCACUUGACUCAAAGAGUCAGAGGGCUCGAAUACAUUUUCUGCACAGGUUUUGCUAAUGCAAGAUCUGGGGCAAGAAUGUGUUCGGGUCAAAUGAGUUA
In the case of B1, the binding result in data set [1] is given as “binds”.

B2: BaFNuc fRNA scaffold (ssRNA)
RNA: CGCUCGAGUGGAGGGAACUGACAACUGUAGAGUGGAGAUCACCGACGAACGCUGGACCUCAAAGACGUGUGGCAUGUGCAGAUCCAUCCACCGCGAACUUGGGGCAAAAGAACUAUUCGAGUGCCCCAACUGCCACUACACCUGCCACAGAGACGUGCACGGAGCUCGAAACAUCUUGCUGAGAAGCUUCGGACAGUUUCCAGUCUAGAAAAACACGAACUUUUUCCUUGGCCCAAGGAUUGCCAAACACCACUCAAAUCCUCGUUCAGGGGCCUCGAGUGGCUGGGCAUAUAUGGGUUA
Take B2: in data set [2], the binding result is on record as “binds”.

B3: DpFNuc fRNA scaffold (ssRNA)
RNA: AUUGGAUGUUCAAAAUGAAGCAUACACUUCGAAGACGUGUGGAGUGUGUGGAACAAUAAACAAAAAUCUAGAAAAGAGUGAAACAUUUUAUUGCGAUAACUGCAAAUAUAACACACACAGAGACGUUAAUGGUGCUAGAAAUAUUUUGCUAAAAUCGUUGCGCAUGUUUCCAUUUGUCAAUUCGCAGUUAUAAUUACUCUGUAACAAUUAGGUCGAUCCAUCCUAAAUUCGAAAGUCCAUUGCUACGAGACUUUGCGUAUGCUUAGUCCAGGGCAAUUUUCUGCCGAAUGAAAUGGGUUA
As for B3, in data set [3], the binding result is “binds”.

B4: KnFNuc fRNA scaffold (ssRNA)
RNA: GGAGGAGGGAGGACAAGCUACAAGACGUGCCACAACGUGCGAGCGUGUACGAACCCGCUCUGUCGCAUGGUGUGGAAUAGAGACGUCAACGCAGCUCGUAACAUAGCUUGGAUCUGUAUGAGCAUAGUCAGAGGCGAGGGCAGGCCAGCGGAGUUCACGAGAGCAGGAAUGUGAGGAUGACUGAGAAUUAGUCGAAAGACAUAGCUGCCUAGAAACGAGUUCAUCUAGGCACUUCGGUGAGAAUCCGAGAUACGGCUGGGUACUGUGGCGAGUGUGCCAUUUUACUCUGAACAGACUGUA
Turning to B4, in data set [4], the binding result is “binds”.

B5: ApmFNuc fRNA scaffold (21 nt 3' guide appended) (ssRNA)
RNA: AAAAAUAGUCUAAUAAAAUCAGGGGUACAUUCCGCUAGUACUCCACCCUACGGGUUAAGCAAAUGAGAAUAUCGAAACGGUAUGCACAGGAUUCUUCGAGUGAUAAUCUUAGGAUGACUCACUAAGGAGAUGACUAAAGUGUAUCAUUCAAUAUUGUAUUGAACGGUAUUCUUCCAUAGAGAGUUGAUUUUUGGAGUAUCCAGAAAUAUCAACUUUUUAUGAGCGG
As for B5, the binding result in data set [5] was “binds”.
